Assay results reported in the supplement of paper PMC9112550, “Optimization of the antimicrobial peptide Bac7 by deep mutational scanning” (BMC Biology, 2022).

Each sequence was assayed on Escherichia coli TOP10 (assay: shrunken log2 fold change of peptide-encoding DNA abundance (4.5 h post-induction vs induction); higher = less antimicrobial activity (less host growth inhibition)). Conditions: time post-induction: 4.5 h; library: site-saturation at positions 5, 18, 19, 20.
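Note: peptides expressed intracellularly from a pBAD plasmid library in pooled LB shake-flask culture, induced with 0.3% L-arabinose, DNA abundance read by NGS, three biological replicates, DESeq2 with apeglm shrinkage.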

| Sequence | shrunken log2 fold change |
| --- | --- |
| RRIRQRPPRLPRPRPRPNIYPRP | -0.153 |
| RRIRNRPPRLPRPRPRPTWTPRP | 0.201 |
| RRIRQRPPRLPRPRPRPLACPRP | -0.231 |
| RRIRQRPPRLPRPRPRPWFWPRP | 0.00186 |
| RRIRVRPPRLPRPRPRPYKWPRP | -0.266 |
| RRIRARPPRLPRPRPRPFWTPRP | 0.29 |
| RRIRSRPPRLPRPRPRPCMFPRP | -0.258 |
| RRIRERPPRLPRPRPRPVHVPRP | -0.389 |
| RRIRWRPPRLPRPRPRPRVFPRP | 0.186 |
| RRIRERPPRLPRPRPRPVRFPRP | 0.431 |
| RRIRHRPPRLPRPRPRPKADPRP | 0.117 |
| RRIRQRPPRLPRPRPRPCCRPRP | -0.0851 |
| RRIRTRPPRLPRPRPRPYDGPRP | -0.0303 |
| RRIRDRPPRLPRPRPRPVDTPRP | -0.0119 |
| RRIRMRPPRLPRPRPRPTWFPRP | 0.448 |
| RRIRKRPPRLPRPRPRPVFLPRP | -0.0387 |
| RRIRCRPPRLPRPRPRPHHCPRP | 0.00372 |
| RRIRMRPPRLPRPRPRPQADPRP | 0.639 |
| RRIRQRPPRLPRPRPRPARWPRP | 0.781 |
| RRIRFRPPRLPRPRPRPSNRPRP | -0.381 |
| RRIRHRPPRLPRPRPRPEINPRP | -0.253 |
| RRIRHRPPRLPRPRPRPHFVPRP | -0.136 |
| RRIRWRPPRLPRPRPRPCKYPRP | -0.509 |
| RRIRERPPRLPRPRPRPEKAPRP | -0.0229 |
| RRIRQRPPRLPRPRPRPRCMPRP | -0.164 |

| Sequence | shrunken log2 fold change |
| --- | --- |
| RRIRSRPPRLPRPRPRPYLYPRP | -0.065 |
| RRIRFRPPRLPRPRPRPLVSPRP | -0.425 |
| RRIRCRPPRLPRPRPRPGHSPRP | -0.347 |
| RRIRMRPPRLPRPRPRPMMPPRP | 0.0687 |
| RRIRDRPPRLPRPRPRPAYKPRP | -0.456 |
| RRIRFRPPRLPRPRPRPVMPPRP | -0.12 |
| RRIRERPPRLPRPRPRPERCPRP | 0.125 |
| RRIRRRPPRLPRPRPRPRNIPRP | -0.0349 |
| RRIRSRPPRLPRPRPRPWVQPRP | 0.127 |
| RRIRFRPPRLPRPRPRPIAWPRP | -0.0725 |
| RRIRMRPPRLPRPRPRPEFFPRP | 0.277 |
| RRIRWRPPRLPRPRPRPQQWPRP | 0.333 |
| RRIRQRPPRLPRPRPRPKRTPRP | 0.00512 |
| RRIRARPPRLPRPRPRPAGLPRP | 0.387 |
| RRIRPRPPRLPRPRPRPQAAPRP | 0.116 |
| RRIRVRPPRLPRPRPRPTYDPRP | -0.372 |
| RRIRDRPPRLPRPRPRPWSHPRP | 0.0226 |
| RRIRQRPPRLPRPRPRPGHWPRP | 0.0453 |
| RRIRKRPPRLPRPRPRPACRPRP | 0.789 |
| RRIRFRPPRLPRPRPRPATKPRP | 0.217 |
| RRIRNRPPRLPRPRPRPCYCPRP | -0.00992 |
| RRIRFRPPRLPRPRPRPGGKPRP | 0.228 |
| RRIRSRPPRLPRPRPRPTVMPRP | 0.00504 |
| RRIRIRPPRLPRPRPRPMEQPRP | -0.00783 |
| RRIRGRPPRLPRPRPRPIHTPRP | 0.0205 |

| Sequence | shrunken log2 fold change |
| --- | --- |
| RRIRMRPPRLPRPRPRPHLEPRP | 0.0983 |
| RRIRVRPPRLPRPRPRPPQFPRP | 0.146 |
| RRIRARPPRLPRPRPRPGMTPRP | 0.261 |
| RRIRHRPPRLPRPRPRPGNWPRP | -0.0354 |
| RRIRERPPRLPRPRPRPKIRPRP | -0.121 |
| RRIRHRPPRLPRPRPRPSCQPRP | -0.31 |
| RRIRRRPPRLPRPRPRPKKDPRP | 0.176 |
| RRIRTRPPRLPRPRPRPNFNPRP | -0.356 |
| RRIRSRPPRLPRPRPRPSCTPRP | -0.0382 |
| RRIRCRPPRLPRPRPRPSTHPRP | -0.454 |
| RRIRARPPRLPRPRPRPSGWPRP | 0.861 |
| RRIRKRPPRLPRPRPRPHFNPRP | -0.0789 |
| RRIRYRPPRLPRPRPRPCQKPRP | -0.0134 |
| RRIRGRPPRLPRPRPRPFRKPRP | -0.0984 |
| RRIRFRPPRLPRPRPRPSDDPRP | -0.106 |
| RRIRLRPPRLPRPRPRPEFCPRP | 0.11 |
| RRIRHRPPRLPRPRPRPLAQPRP | 0.00325 |
| RRIRHRPPRLPRPRPRPWDPPRP | -0.243 |
| RRIRYRPPRLPRPRPRPWSMPRP | -0.221 |
| RRIRDRPPRLPRPRPRPYPHPRP | 1.85 |
| RRIRKRPPRLPRPRPRPVGTPRP | 2.46 |
| RRIRVRPPRLPRPRPRPAWEPRP | 0.162 |
| RRIRMRPPRLPRPRPRPCMWPRP | 0.138 |
| RRIRYRPPRLPRPRPRPWSDPRP | -0.0783 |
| RRIRGRPPRLPRPRPRPPYYPRP | -0.0196 |
